Measured values: the RNAGym collection of RNA variant scans (doi:10.1073/pnas.2313332121)
Variants at the floor of the assay were thinned out.

B1: TPR 5TU (parent)
chain: GGAUCUUCUCGAUCUAACAAAAAAGACAAAUCUGCCACAAAGCUUGAGAGCAUCUUCGGAUGCAGAGGCGGCAGCCUUCGGUGGCGCGAUAGCGCCAACGUUCUCAACUAUGACACGCAAAACGCGUGCUCCGUUGAAUGGAGUUUAUCAUG

Variants of: B1
Assay: polymerase ribozyme fitness, log enrichment relative to wild type (log ratio); higher = more active; in vitro selection for triplet polymerase activity
Method in brief: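 The heterodimeric triplet polymerase ribozyme's subunits were each mutagenized into PCR-built libraries and transcribed. Every library was selected once, in triplicate, by annealing with a biotinylated primer, the partner subunit and triplets, incubating frozen at −7 °C, gel-excising extended constructs, capturing on streptavidin beads and running RT-PCR. Input and output libraries were Illumina-sequenced, with genotypes kept only at ≥10 input reads and ≥1 read per output. Fitness, from inverse-variance-weighted replicate averages, is the base-2 logarithm of genotype enrichment over wild-type enrichment.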

Variant | polymerase ribozyme fitness (log ratio)
G25C A52G U56A A60C G67A C99U C116U G133C U135A | ≤ -4.2
U56A A60G C79G A119C A121U | -3.78
A30G G83U G117A | ≤ -4.2
A41G A52G C69U C93U G94C U146C | -2.71
A20G C36U C85G | -4.17
C8A U13G A30U U82A U101G | ≤ -4.2
A107C A119G C125A | ≤ -4.2
C85U A107C C131U | -4.07
C14G C54A C85G U127A | ≤ -4.2
A60U C69A A89U | -0.419
A21G A52G U53A C54U C87U C95A G136A G140U | ≤ -4.2
C93U A119U A121C | -1.6
A60G C93U | -1.09
A89C A110C | ≤ -4.2
G42C G46C G70C C95G U101G C129A C132G | ≤ -4.2
A17G C57U C69A G100A | ≤ -4.2
A66G C85A | -3.39
C27G U78A G83U A91U G94C U135G G136C | -4.03
A21G A37G C95U A115G G143C | -3.82
C43G G50A C85U | ≤ -4.2
A47C U56A | -0.282
G86C A97U A98U | -3.05
A20G U78G C93U A110U U135G A137G | ≤ -4.2
A66G A73C C85G A107U | ≤ -4.2

Variant | polymerase ribozyme fitness (log ratio)
A52G A113U A150C | ≤ -4.2
U6G A22U C87U | 0.101
U9C U31C A41C G48C A52U C93U C95A G140A | ≤ -4.2
A26C U56C G65A C75U A91U C96U | ≤ -4.2
C27U A37C G50U C95A | -2.6
G80C G81C C96A U134A | ≤ -4.2
C8U G11A G86A U109C C123A C132G | ≤ -4.2
A3U C27U A49C G88C C96A C125G A142C | ≤ -4.2
A142G | -0.833
A20U A41U G59A G67A G86C | ≤ -4.2
G83C A97U C103G U139C | ≤ -4.2
U6C U31C A119G | -0.646
C18U A60G G62A G86A C149U | -3.44
U31G A52G U55G A98U | -0.355
A12C G59A C75U C114U A150C | ≤ -4.2
G25C G46A G50U G83A C95A A97G U127G | ≤ -4.2
C38G G50A G58C A60G U145G | ≤ -4.2
A16G U44A A73G C87U C93U | ≤ -4.2
A89U G92U A121C G140U | -3.5
G83A C116U | -0.551
A29C A30U A89C | ≤ -4.2
C35U C93A C132U A147C | -4.05
A37U C38A G58C C85G C87G | ≤ -4.2
A19G C35U C75G C129A U135C U145G | ≤ -4.2

Variant | polymerase ribozyme fitness (log ratio)
U127A U139G G152U | ≤ -4.2
G58C G59C | 0.523
A21U C87A G117C A137C A142U | ≤ -4.2
C57U G92U | -0.682
A12U C18A C51A U55G C87U G94A G143U | ≤ -4.2
G59U C79A G86A A89G A122G G141C | ≤ -4.2
U13G A66C G80U G83C U101C U139C | ≤ -4.2
C36U U56A C85G C105A C116A | ≤ -4.2
A39C U55A C149U | -3.62
A23U C76G C93G | ≤ -4.2
U104G U145G | -0.945
G59A G70C C85U A91U | ≤ -4.2
A16C G58U U101G C105A U144G | ≤ -4.2
U7G C32U C38U U55G C57U U61A G62A G88A U146C | ≤ -4.2
C85A A115G | -2.38
A47G U55A G71U C85G C95U | ≤ -4.2
A49C G58C A106C U109A C114A | ≤ -4.2
C54U U56A G84U | -0.698
A23U C27U U33G G42U G86U U101A G152A | ≤ -4.2
C8G C10A A40C G67A C75A C87A | ≤ -4.2
A16C C85A | -2.36
A16G A89U A115G A119G U134G U144A | ≤ -4.2
C27G A49G A52C U82G A91G | ≤ -4.2
C14A A20U A47U C76U C85A C95U A115U C131G | ≤ -4.2

Variant | polymerase ribozyme fitness (log ratio)
C18G C76A C85U | -0.589
G25C A119C G136A | -3.75
C35U U144A | -0.455
G70A C75A C85G G140C | ≤ -4.2
A47C C79U G83A C87U C99A C103U | -4.14
C38A C51U C95U G124C | -1.51
A17G A19C U55G C87U C93U C108U G141U | ≤ -4.2
C18U G46U G94A C131U | -1.88
A3U A16U C93U U102C | -4.1
U44G C54U C87U A91U G141C G143C | ≤ -4.2
A47C G83A G92U C108U | ≤ -4.2
U4A A52G C57A G126U | -1.17
A26C C38A G48U C63G C75U C87A C105A | ≤ -4.2
A28G A73U | ≤ -4.2
C5G C76U G84U A113U A122U | -4
U15G A37U A52C U90C U148G | ≤ -4.2
G25U G58U G84A | -2.21
A20U G84U C108U | ≤ -4.2
C36U U61G U82G C85U | -3.95
C27U U44A C54U U56A A60U U82A C85U A97C C105G A110C C118A | ≤ -4.2
C18G A20C A22U U55G G62A | -3.57
A29U G124U | ≤ -4.2
G80U G86U U111C | ≤ -4.2
A20G C38U G88C C96A | ≤ -4.2

Variant | polymerase ribozyme fitness (log ratio)
A16U A19C C85U | -2.05
A73U G83U G84U A97C G100U C105A | ≤ -4.2
A52G C54U | 0.381
A26U G42C C72A C93A C116U | ≤ -4.2
C5G C18G G48U U53A C103G | -3.62
A21G C27G A29C A73C G74U C75G C85U G88A | ≤ -4.2
C8A U9C C18A A19G G58U G84A U144C A147C | ≤ -4.2
U6G C38U C43U A91U C95G U102G | ≤ -4.2
C14U C51U A66G C87A C116U U148C | ≤ -4.2
U31C C76G U109G A119G G141C | ≤ -4.2
A30G A106U A115U C116A A120G | ≤ -4.2
A28U C51A C54U C85U C123G C129U | ≤ -4.2
G83A C125U | -1.29
A73G G88C A107U C129U U139C U148A | ≤ -4.2
U104A C125A | -0.813
A29U G46C G83C C108U | ≤ -4.2
A49C G50A G59U C69G C93U C99U U111G A150U | ≤ -4.2
A29U C38A G50C A52C A66U G74C C108G C132A | ≤ -4.2
C32A U56A C103G A107U | ≤ -4.2
G136A G141U | 1.57
A39U C69U U82C C96U | -2.44
U13A U61A | -1.8
A97U G141U | 0.189
A41U G88C | ≤ -4.2

Variant | polymerase ribozyme fitness (log ratio)
C57A U78G G86C A89U C96U A120U C129G | ≤ -4.2
A20G C32U G84U C93G | -4.2
A41C | -0.379
A19G U82C C116U C125A G141U | ≤ -4.2
G74U C87A C116A U151G | ≤ -4.2
A41C U61G C79U G84C | ≤ -4.2
A47U G68A U82A A97G | ≤ -4.2
A37G U56G G58C G59A C93G C99G C108U | ≤ -4.2
U53G G136C | -4.09
C36U U56A C79G U90G A106G C125U | ≤ -4.2
C51A A91G C95U A97G A119U | ≤ -4.2
A16U C51U G86U U104A C108A G124U | ≤ -4.2
A22U A52C C99U | -1.89
A49G G59C U77G U139A | ≤ -4.2
C35U G81C C85G | -1.5
A12G A21C C32U U55G | -1.77
C85A A97U | -2.65
C14G G34U A41C U77G G83U A115G U135G | ≤ -4.2
A41U A52U C57U U61C | ≤ -4.2
G84C C118A C125U G136U | -4.09
G50A A52U C76G A150G | ≤ -4.2
A23U A39G A91C | ≤ -4.2
A12U C14G G25C C85G G94A U104C A106U C116G U139C | ≤ -4.2
C10U G46C G124A | ≤ -4.2

Variant | polymerase ribozyme fitness (log ratio)
A16C A24U G58A G92U | -2.2
C87U G112A | -3.91
C54U U56A G70A C85A G86U C95G | ≤ -4.2
C51U U104G | -1.04
C38A G84A | -1.23
G59C U90C C108G A119U A150U | ≤ -4.2
C38A C85U | -0.235
G58C U82A | 0.644
C38U G62C | -2.41
C14G G92A | -4.15
G59C C69A | -1.79
A64U A73G A89C G92A A150U | ≤ -4.2
A64G C87A C105A U144G | ≤ -4.2
A12G U33G C36A G86U A110C C118U C123U | ≤ -4.2
A52G G74A C87U C131U A142G | -3.99
A21U C38G G84A G136C | -3.78
A21U C35U U56A C96A A142U | -2.21
C96U C116G | 0.963
A28C C54A G100A | ≤ -4.2
U4C A23C C43U G46A G84A C105G C118U A119C | ≤ -4.2
C96G U148C | -1.42
A49U U56G C57U C96U U102G A147G | -3.99
U13G G59U C85U G94U G112A C116A | ≤ -4.2
